Values quoted from earlier work in US20040072753A1, “Peptides for use in the treatment of alzheimer's disease” (priority 2000, published 2004).

Target: Aβ (Homo sapiens, UniProt P05067)
Settings: Milton, Biochem. J. 344: 293-296 (1999); read-out: binding KD for catalase

B1: catalase: antioxidant enzyme that binds Aβ (protein)
chain: ADSRDPASDQMQHWKEQRAAQKADVLTTGAGNPVGDKLNVITVGPRGPLLVQDVVFTDEMAHFDRERIPERVVHAKGAGAFGYFEVTHDITKYSKAKVFEHIGKKTPIAVRFSTVAGESGSADTVRDPRGFAVKFYTEDGNWDLVGNNTPIFFIRDPILFPSFIHSQKRNPQTHLKDPDMVWDFWSLRPESLHQVSFLFSDRGIPDGHRHMNGYGSHTFKLVNANGEAVYCKFHYKTDQGIKNLSVEDAARLSQEDPDYGIRDLFNAIATGKYPSWTFYIQVMTFNQAETFPFNPFDLTKVWPHKDYPLIPVGKLVLNRNPVNYFAEVEQIAFDPSNMPPGIEASPDKMLQGRLFAYPDTHRHRLGPNYLHIPVNCPYRARVANYQRDGPMCMQDNQGGAPNYYPNSFGAPEQQPSALEHSIQYSGEVRRFNTANDDNVTQVRAFYVNVLNEEQRKRLCENIAGHLKDAQIFIQKKAVKNFTEVHPDYGSHIQALLDKYNAEKPKNAIHTFVQSGSHLAAREKANL
For B1, the Kd is given as 3.3 nM.
